For one substance, Kd results are on record in patent US20210032308A1.

Assay [1] addresses human CD2 on primary human T cells (human) (UniProt P06729). As to the kind of experiment: flow cytometry, calculated Kd of competitor antibody; human CD8 memory T cells.
For assay [2] the target is unchanged. As to the kind of experiment: flow cytometry, calculated Kd of competitor antibody; human CD8 naïve T cells.
Assay [3] has the same target. As to the kind of experiment: flow cytometry, calculated Kd of competitor antibody; human CD4 effector memory T cells.
For assay [4] the target is unchanged. Nature of the assay: flow cytometry, calculated Kd of competitor antibody; expanded human CD4 Treg cells.
For assay [5] the target is unchanged. As to the kind of experiment: flow cytometry, calculated Kd of competitor antibody; human CD4 memory T cells.
The target is the same in assay [6]. Nature of the assay: flow cytometry, calculated Kd of competitor antibody; human CD4 central memory T cells.
Assay [7] has the same target. Nature of the assay: flow cytometry, calculated Kd of competitor antibody; human CD4 naïve T cells.

Values joined by “and” are separate entries in the source; they are usually repeats but may differ in a detail not shown here. Equal values may be shown once.

What is called Kd is the constant that tells how readily two partners part at equilibrium.

Sequence of human CD2 on primary human T cells (human) (P06729 25-351): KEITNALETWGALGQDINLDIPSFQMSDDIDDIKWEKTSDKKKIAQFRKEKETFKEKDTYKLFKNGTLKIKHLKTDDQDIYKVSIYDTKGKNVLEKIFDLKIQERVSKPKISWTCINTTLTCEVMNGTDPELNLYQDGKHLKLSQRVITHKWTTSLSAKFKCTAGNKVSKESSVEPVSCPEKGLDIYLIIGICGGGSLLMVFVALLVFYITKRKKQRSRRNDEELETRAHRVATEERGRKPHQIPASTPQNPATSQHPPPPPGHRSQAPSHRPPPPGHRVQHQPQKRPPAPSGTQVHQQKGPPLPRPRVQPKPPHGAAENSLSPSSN

As for “anti-CD2-FITC (clone RPA2.10) (antibody)”, the Kd in assay [1] was 0.011 µM; in assay [2], 0.0148 µM and 0.031 µM; in assay [3], 0.034 µM; in assay [4], 0.0679 µM; in assay [5], 0.0237 µM and 0.042 µM; in assay [6], 0.0447 µM. Moreover, in assay [7], the Kd was 0.0182 µM and 0.0238 µM.
